Measurements from publication PMC2212354.

What was measured:
[1] = target: CXCR3, stably expressed on HEK293 cells (human) (UniProt P49682)
[2] = target: CXCR3, stably expressed on HEK293 cells (human) (UniProt P49682); test: radioligand binding

Sequence of UniProt P49682 (P49682 whole entry): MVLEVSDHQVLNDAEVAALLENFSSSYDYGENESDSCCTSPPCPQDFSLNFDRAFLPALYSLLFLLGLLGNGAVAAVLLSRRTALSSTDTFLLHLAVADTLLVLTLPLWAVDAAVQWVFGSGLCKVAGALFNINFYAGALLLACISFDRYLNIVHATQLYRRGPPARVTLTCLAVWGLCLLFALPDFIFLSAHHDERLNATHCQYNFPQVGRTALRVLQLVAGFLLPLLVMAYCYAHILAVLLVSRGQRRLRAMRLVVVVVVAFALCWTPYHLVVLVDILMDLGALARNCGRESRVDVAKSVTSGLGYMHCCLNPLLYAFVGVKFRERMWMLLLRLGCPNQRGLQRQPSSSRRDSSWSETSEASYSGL

Row | EC50 of intracellular calcium mobilization in 300-19 CXCR3 transfectants [1] | intracellular calcium mobilized in 300-19 CXCR3 transfectants (maximum) [1] | IC50 [2] | KD, high affinity site (Scatchard) [2] | KD, low affinity site (Scatchard) [2] | radiolabeled I-TAC bound (cpm) [2] | Substance
1 | 50 nM | 1000 nM | 300 nM | – | – | – | IFN-γ–induced human monokine (HuMig), recombinant, unlabeled (from UniProt Q07325 23-125) (ligand)
2 | 1 nM | – | 1 nM | 0.3 nM | 36 nM | – | I-TAC (interferon-inducible T cell alpha chemoattractant), chemically synthesized predicted mature polypeptide, unlabeled (from UniProt O14625 22-94) (ligand)
3 | 10 nM | 1000 nM | 70 nM | – | – | – | IFN-γ–inducible 10-kD protein (IP-10), recombinant, unlabeled (from UniProt P02778 22-98) (ligand)
4 | – | – | – | – | – | 5980 cpm | 125I-iodinated I-TAC (radiolabeled synthetic mature I-TAC) (from UniProt O14625 22-94) (ligand)
